Results: US20130149237A1

Assays:
[1] = target: Recombinant human ApoER2 (R&D Systems #3520-AR) (human) (UniProt Q14114); assay: ELISA on plates coated with 1 µg/ml recombinant human ApoER2; sample: Basolateral/Abluminal medium of the transwell with Empty Filter
[2] = target: Recombinant human ApoER2 (R&D Systems #3520-AR) (human) (UniProt Q14114); assay: direct ELISA: wells coated with 1 ug/ml recombinant human ApoER2, antibody titrated, HRP anti-mouse IgG detection
[3] = target: Recombinant human ApoER2 (R&D Systems #3520-AR) (human) (UniProt Q14114); assay: ELISA on plates coated with 1 µg/ml recombinant human ApoER2; sample: Apical/Luminal medium of the transwell with hCMEC/D3 cells, antibody premixed with a 10-fold excess of soluble recombinant human ApoER2 (low value put down to interference in the ELISA)
[4] = target: Recombinant human ApoER2 (R&D Systems #3520-AR) (human) (UniProt Q14114); assay: ELISA on plates coated with 1 µg/ml recombinant human ApoER2; sample: Apical/Luminal medium of the transwell with Empty Filter
[5] = target: Recombinant human ApoER2 (R&D Systems #3520-AR) (human) (UniProt Q14114); assay: ELISA on plates coated with 1 µg/ml recombinant human ApoER2; sample: Basolateral/Abluminal medium of the transwell with hCMEC/D3 cells
[6] = target: Recombinant human ApoER2 (R&D Systems #3520-AR) (human) (UniProt Q14114); assay: ELISA on plates coated with 1 µg/ml recombinant human ApoER2; sample: Apical/Luminal medium of the transwell with hCMEC/D3 cells
[7] = target: Recombinant human ApoER2 (R&D Systems #3520-AR) (human) (UniProt Q14114); assay: ELISA on plates coated with 1 µg/ml recombinant human ApoER2; sample: Basolateral/Abluminal medium of the transwell with hCMEC/D3 cells, antibody premixed with a 10-fold excess of soluble recombinant human ApoER2

Sequence of UniProt Q14114 (Q14114 other isoform, or with tags, fused parts or gaps limits assumed): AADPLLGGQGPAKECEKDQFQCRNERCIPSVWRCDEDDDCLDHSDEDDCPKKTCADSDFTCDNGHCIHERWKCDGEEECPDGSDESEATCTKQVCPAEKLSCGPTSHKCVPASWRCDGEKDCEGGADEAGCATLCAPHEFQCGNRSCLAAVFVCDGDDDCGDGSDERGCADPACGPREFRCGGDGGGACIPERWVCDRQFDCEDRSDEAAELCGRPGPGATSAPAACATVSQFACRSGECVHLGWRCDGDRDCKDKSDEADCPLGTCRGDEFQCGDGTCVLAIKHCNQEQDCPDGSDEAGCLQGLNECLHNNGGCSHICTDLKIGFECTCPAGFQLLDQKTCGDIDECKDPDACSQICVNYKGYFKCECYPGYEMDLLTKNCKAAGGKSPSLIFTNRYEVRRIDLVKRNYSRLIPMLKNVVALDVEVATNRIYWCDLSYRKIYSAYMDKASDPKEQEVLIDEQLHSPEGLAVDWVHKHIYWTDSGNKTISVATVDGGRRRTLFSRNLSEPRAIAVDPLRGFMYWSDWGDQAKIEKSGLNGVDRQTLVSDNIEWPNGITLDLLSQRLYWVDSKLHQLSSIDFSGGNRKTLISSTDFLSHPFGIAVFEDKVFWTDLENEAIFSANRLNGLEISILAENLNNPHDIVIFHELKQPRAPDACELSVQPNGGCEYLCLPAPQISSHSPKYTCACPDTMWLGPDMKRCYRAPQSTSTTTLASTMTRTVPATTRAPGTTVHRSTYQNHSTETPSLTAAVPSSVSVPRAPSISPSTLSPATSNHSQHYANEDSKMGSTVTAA

Volume Adjusted OD450nm [1]: 0.362 OD450nm
IC50 [2]: 0.068 µg/mL
Volume Adjusted OD450nm [3]: 0.537 OD450nm
Volume Adjusted OD450nm [4]: 2.75 OD450nm
Volume Adjusted OD450nm [5]: 0.138 OD450nm
Volume Adjusted OD450nm [6]: 3.57 OD450nm
Volume Adjusted OD450nm [7]: 0.0789 OD450nm
Substance: mouse monoclonal anti-human ApoER2 antibody (Abcam ab58216)
